These results are taken from US20140087995A1 (published 2014).

Numbered stars: 1 amine (or outer) side, 2 acyl side, 3 side chain; on linkers, the order of the positions; unused ones are H or OH. Bridge positions count the residues as written; N and C are the ends. * marks the point of attachment. C20 diacid = O=C(O)CCCCCCCCCCCCCCCCCCC(=O)*; γGlu = O=C(O)[C@H](CCC(=O)[*:2])N[*:1]

The target in experiment [1] is T1, human calcitonin receptor (human, UniProt P30988 25-474).
T1 construct: whole, on cells; also called hCTR; hCT
T1 sequence (looked up): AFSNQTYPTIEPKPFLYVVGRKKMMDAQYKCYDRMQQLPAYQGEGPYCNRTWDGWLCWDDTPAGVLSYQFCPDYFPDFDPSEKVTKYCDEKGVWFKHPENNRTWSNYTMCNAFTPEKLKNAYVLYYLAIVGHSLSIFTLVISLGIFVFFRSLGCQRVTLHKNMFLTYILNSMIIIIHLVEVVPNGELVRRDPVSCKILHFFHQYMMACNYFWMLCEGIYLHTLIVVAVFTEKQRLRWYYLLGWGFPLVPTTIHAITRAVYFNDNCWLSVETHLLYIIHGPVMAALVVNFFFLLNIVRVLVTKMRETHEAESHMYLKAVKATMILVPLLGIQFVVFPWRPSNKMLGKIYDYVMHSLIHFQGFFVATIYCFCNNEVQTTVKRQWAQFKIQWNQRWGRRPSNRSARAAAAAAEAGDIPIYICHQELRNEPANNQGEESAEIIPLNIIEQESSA
The experiment can be described thus: SPA competition binding, membranes with human calcitonin receptor, displacement of 125I-calcitonin (Assay VII). The procedure, abridged:
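BHK hCTR membranes 35 ng/μL + SPA beads 0.05 mg/well; buffer 50 mM Hepes pH 7.4, 1 mM CaCl2, 5 mM MgCl₂, 0.1% OA, 0.02% Tween20. 120 min, 25° C., shaking. Scintillation count; IC50 by one-site binding competition.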

Experiment [2] addresses T1, human calcitonin receptor. The experiment can be described thus: ratio of IC50 at hCTR to IC50 at the human amylin receptor (reference). The procedure, abridged:
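Membranes (35 ng/μL final) + SPA beads, 50 mM Hepes pH 7.4 buffer with 1 mM CaCl2, 5 mM MgCl₂, 0.1% OA, 0.02% Tween20; 120 min, 25° C, shaking; centrifuged, counted; IC₅₀ by one-site binding competition.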

B1: N^α1-[(4S)-4-carboxy-4-(19-carboxynonadecanoylamino)butanoyl]-[Glu14,Arg17,Pro21,Pro27,Pro29]-h-amylin (peptide)
peptide: {C20 diacid-γGlu}-KCNTATCATQRLAEFLRHSSPNFGAIPSPTNVGSNTY-NH2
modifications: disulfide 2-7
SMILES: CC[C@H](C)[C@H](NC(=O)[C@H](C)NC(=O)CNC(=O)[C@H](Cc1ccccc1)NC(=O)[C@H](CC(N)=O)NC(=O)[C@@H]1CCCN1C(=O)[C@H](CO)NC(=O)[C@H](CO)NC(=O)[C@H](Cc1c[nH]cn1)NC(=O)[C@H](CCCNC(=N)N)NC(=O)[C@H](CC(C)C)NC(=O)[C@H](Cc1ccccc1)NC(=O)[C@H](CCC(=O)O)NC(=O)[C@H](C)NC(=O)[C@H](CC(C)C)NC(=O)[C@H](CCCNC(=N)N)NC(=O)[C@H](CCC(N)=O)NC(=O)[C@@H](NC(=O)[C@H](C)NC(=O)[C@@H]1CSSC[C@H](NC(=O)[C@H](CCCCN)NC(=O)CC[C@H](NC(=O)CCCCCCCCCCCCCCCCCCC(=O)O)C(=O)O)C(=O)N[C@@H](CC(N)=O)C(=O)N[C@@H]([C@@H](C)O)C(=O)N[C@@H](C)C(=O)N[C@@H]([C@@H](C)O)C(=O)N1)[C@@H](C)O)C(=O)N1CCC[C@H]1C(=O)N[C@@H](CO)C(=O)N1CCC[C@H]1C(=O)N[C@H](C(=O)N[C@@H](CC(N)=O)C(=O)N[C@H](C(=O)NCC(=O)N[C@@H](CO)C(=O)N[C@@H](CC(N)=O)C(=O)N[C@H](C(=O)N[C@@H](Cc1ccc(O)cc1)C(N)=O)[C@@H](C)O)C(C)C)[C@@H](C)O
notes: also called compound 37
As for B1, the IC50 in experiment [1] turned out to be 2.18 nM. Besides, the “Ratio hCT/hAmylin binding” value in experiment [2] was 2.3.
On the same counts, the results for {C20 diacid-γGlu}-KCNTATCATQRLAEFLRHSSPNFGAILPSTNVGSETY-NH2 (disulfide 2-7, also called compound 33) are 3.61 nM and 3.9.

B2: N^α1-[(4S)-4-carboxy-4-(19-carboxynonadecanoylamino)butanoyl]-[His14,Arg17,Pro21,Pro27,Glu35]-h-amylin (peptide)
peptide: {C20 diacid-γGlu}-KCNTATCATQRLAHFLRHSSPNFGAIPSSTNVGSETY-NH2
modifications: disulfide 2-7
SMILES: CC[C@H](C)[C@H](NC(=O)[C@H](C)NC(=O)CNC(=O)[C@H](Cc1ccccc1)NC(=O)[C@H](CC(N)=O)NC(=O)[C@@H]1CCCN1C(=O)[C@H](CO)NC(=O)[C@H](CO)NC(=O)[C@H](Cc1c[nH]cn1)NC(=O)[C@H](CCCNC(=N)N)NC(=O)[C@H](CC(C)C)NC(=O)[C@H](Cc1ccccc1)NC(=O)[C@H](Cc1c[nH]cn1)NC(=O)[C@H](C)NC(=O)[C@H](CC(C)C)NC(=O)[C@H](CCCNC(=N)N)NC(=O)[C@H](CCC(N)=O)NC(=O)[C@@H](NC(=O)[C@H](C)NC(=O)[C@@H]1CSSC[C@H](NC(=O)[C@H](CCCCN)NC(=O)CC[C@H](NC(=O)CCCCCCCCCCCCCCCCCCC(=O)O)C(=O)O)C(=O)N[C@@H](CC(N)=O)C(=O)N[C@@H]([C@@H](C)O)C(=O)N[C@@H](C)C(=O)N[C@@H]([C@@H](C)O)C(=O)N1)[C@@H](C)O)C(=O)N1CCC[C@H]1C(=O)N[C@@H](CO)C(=O)N[C@@H](CO)C(=O)N[C@H](C(=O)N[C@@H](CC(N)=O)C(=O)N[C@H](C(=O)NCC(=O)N[C@@H](CO)C(=O)N[C@@H](CCC(=O)O)C(=O)N[C@H](C(=O)N[C@@H](Cc1ccc(O)cc1)C(N)=O)[C@@H](C)O)C(C)C)[C@@H](C)O
notes: also called compound 30
As for B2, the IC50 in experiment [1] came to 21.6 nM. In addition, the “Ratio hCT/hAmylin binding” value in experiment [2] came to 23.6.

B3: N^α1-[(4S)-4-carboxy-4-(19-carboxynonadecanoylamino)butanoyl]-[Glu14,Arg17,Pro21,Pro27,Pro31]-h-amylin (peptide)
peptide: {C20 diacid-γGlu}-KCNTATCATQRLAEFLRHSSPNFGAIPSSTPVGSNTY-NH2
modifications: disulfide 2-7
SMILES: CC[C@H](C)[C@H](NC(=O)[C@H](C)NC(=O)CNC(=O)[C@H](Cc1ccccc1)NC(=O)[C@H](CC(N)=O)NC(=O)[C@@H]1CCCN1C(=O)[C@H](CO)NC(=O)[C@H](CO)NC(=O)[C@H](Cc1c[nH]cn1)NC(=O)[C@H](CCCNC(=N)N)NC(=O)[C@H](CC(C)C)NC(=O)[C@H](Cc1ccccc1)NC(=O)[C@H](CCC(=O)O)NC(=O)[C@H](C)NC(=O)[C@H](CC(C)C)NC(=O)[C@H](CCCNC(=N)N)NC(=O)[C@H](CCC(N)=O)NC(=O)[C@@H](NC(=O)[C@H](C)NC(=O)[C@@H]1CSSC[C@H](NC(=O)[C@H](CCCCN)NC(=O)CC[C@H](NC(=O)CCCCCCCCCCCCCCCCCCC(=O)O)C(=O)O)C(=O)N[C@@H](CC(N)=O)C(=O)N[C@@H]([C@@H](C)O)C(=O)N[C@@H](C)C(=O)N[C@@H]([C@@H](C)O)C(=O)N1)[C@@H](C)O)C(=O)N1CCC[C@H]1C(=O)N[C@@H](CO)C(=O)N[C@@H](CO)C(=O)N[C@H](C(=O)N1CCC[C@H]1C(=O)N[C@H](C(=O)NCC(=O)N[C@@H](CO)C(=O)N[C@@H](CC(N)=O)C(=O)N[C@H](C(=O)N[C@@H](Cc1ccc(O)cc1)C(N)=O)[C@@H](C)O)C(C)C)[C@@H](C)O
notes: also called compound 31
As for B3, in experiment [1], the IC50 turned out to be 3.26 nM. In experiment [2], the “Ratio hCT/hAmylin binding” value amounted to 16.

B4: N^α1-[(4S)-4-carboxy-4-(19-carboxynonadecanoylamino)butanoyl]-[Glu14,Arg17,Pro21,Pro27,Pro37]-h-amylin (peptide)
peptide: {C20 diacid-γGlu}-KCNTATCATQRLAEFLRHSSPNFGAIPSSTNVGSNTP-NH2
modifications: disulfide 2-7
SMILES: CC[C@H](C)[C@H](NC(=O)[C@H](C)NC(=O)CNC(=O)[C@H](Cc1ccccc1)NC(=O)[C@H](CC(N)=O)NC(=O)[C@@H]1CCCN1C(=O)[C@H](CO)NC(=O)[C@H](CO)NC(=O)[C@H](Cc1c[nH]cn1)NC(=O)[C@H](CCCNC(=N)N)NC(=O)[C@H](CC(C)C)NC(=O)[C@H](Cc1ccccc1)NC(=O)[C@H](CCC(=O)O)NC(=O)[C@H](C)NC(=O)[C@H](CC(C)C)NC(=O)[C@H](CCCNC(=N)N)NC(=O)[C@H](CCC(N)=O)NC(=O)[C@@H](NC(=O)[C@H](C)NC(=O)[C@@H]1CSSC[C@H](NC(=O)[C@H](CCCCN)NC(=O)CC[C@H](NC(=O)CCCCCCCCCCCCCCCCCCC(=O)O)C(=O)O)C(=O)N[C@@H](CC(N)=O)C(=O)N[C@@H]([C@@H](C)O)C(=O)N[C@@H](C)C(=O)N[C@@H]([C@@H](C)O)C(=O)N1)[C@@H](C)O)C(=O)N1CCC[C@H]1C(=O)N[C@@H](CO)C(=O)N[C@@H](CO)C(=O)N[C@H](C(=O)N[C@@H](CC(N)=O)C(=O)N[C@H](C(=O)NCC(=O)N[C@@H](CO)C(=O)N[C@@H](CC(N)=O)C(=O)N[C@H](C(=O)N1CCC[C@H]1C(N)=O)[C@@H](C)O)C(C)C)[C@@H](C)O
notes: also called compound 8
As for B4, the IC50 in experiment [1] was 0.038 nM. Moreover, the “Ratio hCT/hAmylin binding” value in experiment [2] turned out to be 0.5.

B5: N^α1-[(4S)-4-carboxy-4-[[(4S)-4-carboxy-4-(19-carboxynonadecanoylamino)butanoyl]amino]butanoyl]-[Glu14,Arg17,Pro21,Pro27,Pro37]-h-amylin (peptide)
peptide: {C20 diacid-γGlu-γGlu}-KCNTATCATQRLAEFLRHSSPNFGAIPSSTNVGSNTP-NH2
modifications: disulfide 2-7
SMILES: CC[C@H](C)[C@H](NC(=O)[C@H](C)NC(=O)CNC(=O)[C@H](Cc1ccccc1)NC(=O)[C@H](CC(N)=O)NC(=O)[C@@H]1CCCN1C(=O)[C@H](CO)NC(=O)[C@H](CO)NC(=O)[C@H](Cc1c[nH]cn1)NC(=O)[C@H](CCCNC(=N)N)NC(=O)[C@H](CC(C)C)NC(=O)[C@H](Cc1ccccc1)NC(=O)[C@H](CCC(=O)O)NC(=O)[C@H](C)NC(=O)[C@H](CC(C)C)NC(=O)[C@H](CCCNC(=N)N)NC(=O)[C@H](CCC(N)=O)NC(=O)[C@@H](NC(=O)[C@H](C)NC(=O)[C@@H]1CSSC[C@H](NC(=O)[C@H](CCCCN)NC(=O)CC[C@H](NC(=O)CC[C@H](NC(=O)CCCCCCCCCCCCCCCCCCC(=O)O)C(=O)O)C(=O)O)C(=O)N[C@@H](CC(N)=O)C(=O)N[C@@H]([C@@H](C)O)C(=O)N[C@@H](C)C(=O)N[C@@H]([C@@H](C)O)C(=O)N1)[C@@H](C)O)C(=O)N1CCC[C@H]1C(=O)N[C@@H](CO)C(=O)N[C@@H](CO)C(=O)N[C@H](C(=O)N[C@@H](CC(N)=O)C(=O)N[C@H](C(=O)NCC(=O)N[C@@H](CO)C(=O)N[C@@H](CC(N)=O)C(=O)N[C@H](C(=O)N1CCC[C@H]1C(N)=O)[C@@H](C)O)C(C)C)[C@@H](C)O
notes: also called compound 14
In the case of B5, the IC50 in experiment [1] came out at 0.432 nM. Besides, the “Ratio hCT/hAmylin binding” value in experiment [2] was found to be 2.2.

By IC50 is commonly meant the concentration needed to halve the response being measured.
